Laboratory results: the nanobody polyreactivity screen of Harvey et al. (2022)

Assay: yeast display, Sf9 membrane polyspecificity reagent, FACS + sequencing; frameworks hold sequencing errors
Procedure, shortened: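 Nanobodies came from a synthetic yeast display library in Saccharomyces cerevisiae BJ5465, induced with galactose for 36–48 hours and stained for 1 hour at 4 °C with 10% biotinylated, detergent-solubilized Sf9 membrane reagent. Cells were enriched on streptavidin microbeads and then FACS-sorted, with low and high (top ~1%) gates set on anti-HA fluorescence for expression and streptavidin fluorescence for reagent binding. Each polyreactivity label reflects the gate a clone came from. Genes were amplified by colony PCR, sequenced by MiSeq 2 × 250 and filtered by CDR length.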

Sequence	polyreactivity (PSR sort gate)
QVQLVESVGGLVQAGGSLRLSCAASGFIFTHYAMGWYRQAPGKERELVAAISSGGSTYYADSVKGRFTISRDNAKNTVYLQMNSLKPEDTAVYYCAAVWPWRYYATGENYWGQGTHVTVSS	high polyreactivity
QVQLVESGGGLVQAGGSLRLSCAASGSTFGWYAMGWYRQAPGKERELVAAISTSGNTYYADSVKGRFTISRDNAKNTVYLQMNSLKPEDTAVYYCAKYVNPDHDYWGQGTQVTVSS	low polyreactivity
QVQLVESGGGLVQAGGRLRLSCSASGSTFYPNAMGWYRQAPGKERELGAAISWSGGSTYYADSVKGRFTISRDNAKKTVDLQMNSLKPEDTAVYYCAAYYYGVRKYDYWGQGTQVTVSS	high polyreactivity
QVQLVESGGGLVQAGGSLRLSCDASGITFYRYAMGWYRQAPGKERELVAAITSGDTTYYADSVKGRFTISRDNAKNTVYLQMNSLKPEDTADYYCAAVAGYRVVRTRELGYWGQGTQVTVSS	high polyreactivity
QVQLVESGGGLVQAGGSLRLSCAASGFTFKQYGMGWYRQAPGKERELVASISYRGGSTHYADSVKGRFTISRDNAKNTVYLQMNSLKPEDTAVYYCAARVTSRTSIKGDYWGQGTQVTVSS	low polyreactivity
QVQLVESGGGLVQAGGSLRLSCAASGRTLPKYVMGCYRQAPGKERELVDAISSSGDSTYYADSVKGRFTISRDNAKNTVYLQMNSLKPEDTAVYYCAKYDRNTYGYWGQGTQVTVSS	low polyreactivity
QVQLQECGGGLVQAGGSLRLSCAASGTFSNSVKWLYCHAPGKEREFVATIGVGGSTNYADSVKGRFTISRDNAKYTVYLQMNSLKPEDTAVYHCAAYGAASNFHYYRGQGTQVTVSS	low polyreactivity
QVQLVESGGGLVQAGGSLRLSCAASGFTFFKYAMGWYRQAPGKERELVAAITRNGGRTYYADSVKGRFTISRDNAKNTVYLQMNSLKPEDTAVYYCAAVQYRYGGMDYWGQGTQVTVSS	high polyreactivity
QVQLVESGGGLVQAGGSLRLSCAASGRTFSYYAMGWYRQAPGKERELVAAITSGGGRTYYADSVKGRFTISRDNAKNTVYLQMNSLKPEDTAVYYCNALSTLYNGYDYWGQGTQVTVSS	high polyreactivity
QVQLVESGGGLVHAGGSIRLSCSASRRIFGYNVMGWYRQAPGKERELVAAITSGDRTYYADSVKGRFTISRDNAKHTVYLQMNSLKPEDTAVYYCAARGDRRRYGSLMDSWGQGTQVTVSS	high polyreactivity
QVHLVESGGGLVKAGGSLRLSCPASGFIFTLYAMGWYRQPPGKERELVASIRGSGGNTYYADSVKGRFTISRDNAKNTVYLQMNSLKPEDTAVYYCAAGYPYYYWTPYYYWGQGTQVTVSS	high polyreactivity
QVQLVESGGGLVQAGGSLRLSCAASGSTFLRNAMRWYRQAPGKERELVAAISRSGGSTYYADSVKGRFTSSRDNAKNTVYLQMNSLKPEDTAVYYCAAVVKYRYSAYGGDYCGQGTQVTVSS	high polyreactivity
QVQLVESGGGLVQAGGSLRLSCAASGSIFSSNTMGWYRQAPGKERELVAAITVSGGRTYYADSVKGRFTISRDNAKNTVYLQMNSLKPEDTAVYYCATRWFGNSYSYRAYDYWGQGTQVTVSS	high polyreactivity
QVQLEESGGGLVQAGGSLRLSFAAYGRTFGTNPMGWYRQATGKERELVAAITKSSSRTYYADSVKGRFTISRDNAKNTVYLQMNSLKPEDTAVYYCAARYYAVGGYDYWGQGTQVTVSS	high polyreactivity
QVQLVESGGGLVQAGGSLRLSCAASGSIFPIYAMGWSRQPPGKESELVAPISRGGSTNYADSVKGRFTISRDNAKNTVYLQMNSLKPEDTAVYYCAAQSRVFSTWGSTGEYYYWGQGTQVTVSS	low polyreactivity
LVHLQESGGGMVQAGGSLRLSGAAIGYISWADYMGWYRQAPGKERELVAGIGYGSTTYYADSVKGRFTISRDNAKNTAYLQMNSLKPEDTGVYYCAVGLDRDTAYKYWGQGTQVTVSS	low polyreactivity
QVQLVESGGGLVQAGGSLRLSCAASGFIFHSYAMRWYRQAPGKERELVAAITHSGGRTYYADCVKGRFTISRDNAKNTVYLQMNSLKPEDTAVYYCAAVTRRHEYDYWGQGSQVTVSS	high polyreactivity
QVQLVESGGGLVQAGGSLRLSCAASGFIFYRNTMGWYRQAPGKEREFVAAIRWRGGSTYYADSVKGRFTISRDNAKNTVYLQMNSLKPEDTAVYYCNALGKPTWYATTYDYWGQGTQVTVSS	high polyreactivity
QVQLVESGGGLVQAGGSIRLSCAASGSTISHNAMGWYRQAPGKERELVAAITRGDSTNYADSVKGRFTNTRDNAKNTVYLEMNSLKPEDTAVYYCNANKWYRYDYWGQGTQVTVSS	low polyreactivity
QVQLVESGGGLVQAGGSLRLSCAASGSTFGYNAMGWSRPAPGKERELVAAITWSGGSTYYADSVKGRFTISRDNAKNTVYLQMNSLKPEDTAVYYCAADDWYNSKWHYYYWGQGTQVTVSS	low polyreactivity
QVQLVESAGGLVQAGGSLRLSCAASVSTLEYNAMGWYRQAPGNERELVAAITASGGSTYYADSVKGRFTISRDNAKKTVYLQMNSLKPDDTAVYYCATEANQRTLKDTVKDYDYWGQGTQVTVSS	low polyreactivity
QVQLVESGGGLVQAGGSLRLSCAASGSIFYRYTMGWSRQAPGKERELVAAITYSGGSTYYADSVKGRFTISRDNAKNTVYLQMNSLIPEDTAVYYCNKDYYSGQSGYNYWGQGTQVTVSS	low polyreactivity

Sequence	polyreactivity (PSR sort gate)
QVQLVESGGGLVQAGGSLRLSCADSGGIFLSYGMGWYRQAPGKERELVAAISRNDGRTYYADSVKGRFTISRDNAKNTVYLQMNSLKPEDTAVYYCAADPEYYYYIYVYVQYDYWGQGTQVTVSS	low polyreactivity
QDQLVESGGGFVQAGGSLRLSCAASGFIYDNEMGWYRQAPGKERELVASITSRGGNTYYADSVKGRFTISRDNAKNTVYLQMNSLKPEETAVYYCAARYYWGSYGPYGYWGQGTQLTVSS	high polyreactivity
QVQLVETGGGLVQAGGSLRLSCAASGRIFGRYAMGWSRQAPGKERELVASISRGGSTNYADSVKGRFTISRDNAKNTVYLQMNSLKPEDTAVYYCAKSGGVGGADRVGSWGQGTQVTVSS	low polyreactivity
QVQLVESGGGLVQAGGSLRLSCAASGFILDTYGMGWYRQAPGKERELVAAISQSDVSTYYADSVKGRFTISRDNAKNTVSLQMNSLKPEDTAVYYCAADRAGLRWFWQLLYDYWGQGTQVTVSS	low polyreactivity
QVQLVESGGGLVQAGGSLRLSCAASGSTFPPYAMGWYRQAPGKERELVAAIDWSDGTTYYADSVKGRFTISRDNAKNTVYLQMNSLKPEDTAVSYCSASLSQSEFDYWGQGTQVTVSS	low polyreactivity
QVQLVESVGGLVQAGGSLRLSCAASGFISYYYAMGWYRQAPGKEREFVAAITSSGGSTRYADSVKGRFTISRDNAKNPVYLQMNSLKPEDTAVYYCAARKARPPFPHPFDYYWGQGTQVTVSS	low polyreactivity
QVQLVESGGGLVQAGGSLRLSCAASGSTLVTYAMGWYRQAPGKERELVAGISSGGSTNYADSVKGRFTISRDNAKNTVYLQMNSLKPEDTAVYYCAAQGSLTWWAATFIYDYWGQGTQVTVSS	low polyreactivity
QVQLVESGGGLVQAGGSLRLSCAASGRIFYYNAMGWYRQAPGKEREFVAAISSGGGSTYYADSVKGRFTISRDNAKNTVYLQMNSLKPEDTAVYYCAADGYYYDYYYYWGDYGYWGQGTQVTVSS	high polyreactivity
QVQLVESGGGLVQAGGSLRLSCAAYGSIFRWYAMGWYRQAPGKERELVAAISTSGGNKYYADSVKGRFTISRDNAKNTVYLQMNSLKPEDTAVYYCNALWYRSLSYRYDYWGQGTQVTVSS	high polyreactivity
QVQLVESGGGLVQAGGSLRLSCAASGRIFGYYTMGWYRQAPGKERELVAGITRRGGRTYYADSVKGRFTISRDNAKNTVYLQMNSLKPEDTAVYYCAVRSGVNFYYWGQGTQVTVSS	high polyreactivity
QVQLVESGGGLVQAGGSLRLSCAASGLTIGYYAMGWYRQAPGKERELVAAISGSGGATYYADSVKGRFTISRDNAKNTVYLQMNSLKPEDTAVYYCAAKWGRTGRFDYWGQGTQVTVSS	low polyreactivity
QVQLVESGGGLVQAGGSLRLSCAASGRTFGKNAMGWYRQAPGKEREFVAAITSRGGSTYYADSVKGRFTISRDNAKNTDYLQMNRLKPEDTAVYYCNREFKRQSQRTEHYYWGQGTQVTVSS	low polyreactivity
QVQLVESGGGLVQAGGSLRLSCAASGFTFRSNAMGWSRQAPGKERELVAAISYSGGDTYYADSVKGRFTISRDNAKNTVYLQMNSLKPEDTAVYYCAADDPASPLGEYWGQGTQVSVSS	low polyreactivity
QVQLVESGGGLVQAGGSLRLICAASGSTFIINAMGWYRQAPGKERELVARITQRGTSTFYADSVKGRFTISRDNAKNTVYLQMNSLKPEDTAVYYCAARGSKSLGNKYDYWGQGTQVTVSS	high polyreactivity
QVPLQESGGGLVQAGGSLRLSCAASGTISYAPHMGWYRQAPGKERELVAGITIGGTTYYADSVKGRFTISRDNAKNTVYLQMNSLSPGDTAVYYCAAHSEQYTPFYYWGQGTQVTVSS	low polyreactivity
QVQLVESGGGLVQAGGSLRLSCAASGSTFFRNAMGWYRQAPGKERELVAAISKSGTSTYYADSVKGRFTISRDNAKNTVYLQMNSLKPEDTAVYYCAKYGFSYPQSYAYYYWGQGTQVTVSS	high polyreactivity
QVQLVESGGGLVQAGGSLRLSCAASGRTFSYYTMGWYRQAPGKERELVARISNRGTNTYYADSVKGRFTISRDNAKNTVYLQMNSLKPEDTAVYYCAATQPYWWAYRYDYWGQGTQVTVSS	low polyreactivity
QVQLVESGGGLVQAGGSLRLSCAASGSTFDRYGMGWYRQAPGKERELVAAISWSGGSTYYADSVKGRFTFSRDNAKNTVYLQMNSLKPEDTAVYYCNAVLYRFAYNYWGQGTQVTVSS	low polyreactivity
QVQLVESGGGLVQAGGSLRLSCAASGFIFWDYALGWYRQAPGKEREFVANISRSVGSTYYADSVKGRFTISRDNAKNTVYLQMYTLKPEDTAVYYCAAVTWGEGFDYWGQGTQVTVSS	low polyreactivity
QFQLVESGGGLVQAGGSLRLICAASGFIFRTYAMGWYRQAPGKAREFVAAITFSAGSTYYADSVKGRFTISRDNAKNTVYLQMNSLLPEDSAVYDCNVLKSWYGYSVTGRYVYWGQGTQVTVSS	low polyreactivity
QVQLVESGGGLVQAGGSLRLSCAASGFIFLDYAMGWYRQAPGKERELVAAISSRGARTYYADSVKGRFTISRDNAKNTVYLQMNSLKPEDTAVYYCAARGPLVRYGYWGHGTQVTVSS	high polyreactivity
